According to patent publication US20240010735A1 (EISAI R AND D MANAGEMENT, published 2024):

Experiments:
Assay in all cases: ELISA: SEAP-His proteins (1 nM) captured on anti-6-His antibody, antibody B 10 µg/mL with human IgG 100 µg/mL, HRP anti-human IgG, OD450 as % of human EphA4-SEAP-His
[1] = biological target: T1, human EphB4 extracellular region-SEAP-His protein (human, UniProt P54760 16-539)
T1 construct: extracellular domain; also called Eph receptor extracellular region-SEAP-His protein; not shown: secretory alkaline phosphatase (SEAP); histidine tag
T1 sequence (looked up): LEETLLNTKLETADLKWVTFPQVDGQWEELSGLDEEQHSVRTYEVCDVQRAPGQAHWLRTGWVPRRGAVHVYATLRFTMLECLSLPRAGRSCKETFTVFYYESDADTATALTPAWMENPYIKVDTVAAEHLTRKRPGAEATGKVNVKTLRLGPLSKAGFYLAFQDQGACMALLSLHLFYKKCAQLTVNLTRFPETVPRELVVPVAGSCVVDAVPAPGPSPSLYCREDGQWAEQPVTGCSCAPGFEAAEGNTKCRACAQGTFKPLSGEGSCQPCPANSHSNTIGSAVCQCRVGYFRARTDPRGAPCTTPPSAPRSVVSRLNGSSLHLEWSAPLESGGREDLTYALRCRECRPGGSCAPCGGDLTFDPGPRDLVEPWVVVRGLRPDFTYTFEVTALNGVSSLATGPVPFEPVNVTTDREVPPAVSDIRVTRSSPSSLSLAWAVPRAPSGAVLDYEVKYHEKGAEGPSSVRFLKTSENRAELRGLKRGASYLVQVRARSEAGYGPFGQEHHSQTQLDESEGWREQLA

[2] = biological target: T2, human EphA10 extracellular region-SEAP-His protein (human, UniProt Q5JZY3 34-565)
T2 construct: extracellular domain; also called Eph receptor extracellular region-SEAP-His protein; not shown: secretory alkaline phosphatase (SEAP); histidine tag
T2 sequence (looked up): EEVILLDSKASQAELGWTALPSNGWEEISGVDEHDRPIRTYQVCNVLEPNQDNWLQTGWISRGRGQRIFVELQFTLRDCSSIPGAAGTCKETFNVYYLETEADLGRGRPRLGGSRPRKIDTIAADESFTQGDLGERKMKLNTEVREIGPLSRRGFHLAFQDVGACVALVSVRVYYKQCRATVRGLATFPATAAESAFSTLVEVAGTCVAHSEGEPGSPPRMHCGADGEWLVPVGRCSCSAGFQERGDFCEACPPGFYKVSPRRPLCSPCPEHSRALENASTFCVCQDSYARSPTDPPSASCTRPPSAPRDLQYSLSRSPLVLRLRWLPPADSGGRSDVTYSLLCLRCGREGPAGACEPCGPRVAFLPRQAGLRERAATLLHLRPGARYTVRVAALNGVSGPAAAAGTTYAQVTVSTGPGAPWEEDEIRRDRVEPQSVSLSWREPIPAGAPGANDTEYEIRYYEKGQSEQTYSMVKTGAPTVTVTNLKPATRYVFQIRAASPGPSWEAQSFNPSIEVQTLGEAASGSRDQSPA

[3] = biological target: T3, human EphB3 extracellular region-SEAP-His protein (human, UniProt P54753 34-559)
T3 construct: extracellular domain; also called Eph receptor extracellular region-SEAP-His protein; not shown: secretory alkaline phosphatase (SEAP); histidine tag
T3 sequence (looked up): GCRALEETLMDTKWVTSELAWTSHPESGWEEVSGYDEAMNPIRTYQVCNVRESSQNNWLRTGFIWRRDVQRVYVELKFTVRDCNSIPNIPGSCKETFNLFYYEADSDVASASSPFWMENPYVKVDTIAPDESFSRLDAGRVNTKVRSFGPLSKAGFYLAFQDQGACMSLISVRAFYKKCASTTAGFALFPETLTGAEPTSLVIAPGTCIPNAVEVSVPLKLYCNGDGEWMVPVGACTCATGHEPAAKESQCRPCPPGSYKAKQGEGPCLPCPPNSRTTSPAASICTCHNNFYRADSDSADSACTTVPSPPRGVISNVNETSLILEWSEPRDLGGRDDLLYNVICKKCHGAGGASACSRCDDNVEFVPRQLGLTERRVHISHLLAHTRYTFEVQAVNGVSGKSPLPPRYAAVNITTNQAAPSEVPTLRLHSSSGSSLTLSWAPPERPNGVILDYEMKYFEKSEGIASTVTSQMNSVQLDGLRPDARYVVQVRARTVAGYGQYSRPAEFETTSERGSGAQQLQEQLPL

[4] = biological target: T4, human EphB2 extracellular region-SEAP-His protein (human, UniProt P29323 19-543)
T4 construct: extracellular domain; also called Eph receptor extracellular region-SEAP-His protein; not shown: secretory alkaline phosphatase (SEAP); histidine tag
T4 sequence (looked up): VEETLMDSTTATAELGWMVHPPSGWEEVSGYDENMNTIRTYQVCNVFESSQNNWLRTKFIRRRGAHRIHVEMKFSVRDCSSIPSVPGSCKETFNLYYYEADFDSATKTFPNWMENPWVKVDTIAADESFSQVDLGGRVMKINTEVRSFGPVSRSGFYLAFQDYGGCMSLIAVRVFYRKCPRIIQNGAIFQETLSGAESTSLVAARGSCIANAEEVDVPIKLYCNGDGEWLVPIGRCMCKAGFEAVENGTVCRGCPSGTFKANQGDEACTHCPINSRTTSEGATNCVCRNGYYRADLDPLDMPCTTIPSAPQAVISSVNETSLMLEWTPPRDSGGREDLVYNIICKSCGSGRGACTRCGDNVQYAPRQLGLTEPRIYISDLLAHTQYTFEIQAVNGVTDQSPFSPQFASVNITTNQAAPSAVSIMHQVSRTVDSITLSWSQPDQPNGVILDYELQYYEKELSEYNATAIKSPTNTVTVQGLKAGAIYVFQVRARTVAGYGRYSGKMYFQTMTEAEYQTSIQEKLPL

Measured: binding result

B1: humanized anti-EphA4 monoclonal antibody (antibody B) (antibody, human IgG2, V domains shown)
VH: QVQLVESGGGVVQPGRSLRLSCAVSGFSLTRFGVHWVRQAPGKGLEWVAVIWRGGSTDYNAAFMSRLTISKDNSKNTVYLQMNSLRAEDTAVYYCAKESLFGVYYDYGYYSMDYWGQGTTVTVSS
VL: DIQMTQSPSSLSASVGDRVTITCRASQEISGYLSWLQQKPGKAPKRLIYAASTLDSGVPSRFSGSRSGTEYTLTISSLQPEDFATYYCLQYASYPLTFGGGTKVEIKR
notes: expressed in Expi293F cells; also called humanized antibody of antibody A; HK2-42 / L1-8
no binding (tested: 10 µg/mL): all assays above
